Assay results taken from patent US20240034813A1 (Janssen / Centocor, published 2024).

Key:
[1] = target: T1, recombinant human EGFR/ErbB1/HER1 with C-terminal His tag, Cy5-labeled (human, UniProt P00533 25-645, Cy5 label (reacted with Cy5 Mono NHS Ester; sites not stated)); test: competitive TR-FRET (Eu-amivantamab/Cy5-EGFR), EC50 ratio vs Reference Material; Ex. 2 Formulation 2 (50 mM histidine), 1 month at 40 C
T1 construct: Commercial protein; also called Cy5-EGFR; Cy5-labeled EGFR antigen; not shown: C-terminal His tag
Description: (§1) In this procedure, varying concentrations of unlabeled bispecific EGFR-cMet antibody sample compete with donor fluorophore (Europium (Eu) chelate) labeled bispecific EGFR-cMet antibody for binding to an acceptor fluorophore (Cy5)-labeled EGFR antigen. Excitation of the donor fluorophore results in a transfer of energy to the bound acceptor fluorophore (FRET process). The resultant FRET is detected by emission of light at 665 nm using a microplate reader capable of measuring time-resolved fluorescence. Sample dose response curves are compared to the RM.
(§2) EGFR Binding Materials and Methods. Certified commercial EGFR, a recombinant human EGFR/ErbB1/HER1 with C-terminal His tag is reacted with certified commercial Cy5 Mono NHS Ester to produce Cy5-labeled EGFR. Validated bispecific EGFR-cMet antibody is reacted with certified commercial Europium (Eu) chelate to produce Eu-labeled bispecific EGFR-cMet antibody. […] Fluorescence is then measured by spectrophotometry at 665 nm, plotted against antibody concentration and analyzed by a four-parameter logistic model. The antibody concentration required to obtain half of the maximum fluorescence response (EC50) is determined for RM, assay control and samples. The potencies of assay control and samples are calculated based on the ratio of the sample (or control) and RM EC50 values and reported as a percentage activity relative to the RM.

[2] = target: T1, recombinant human EGFR/ErbB1/HER1 with …; test: competitive TR-FRET (Eu-amivantamab/Cy5-EGFR), EC50 ratio vs Reference Material; Ex. 3 acetate formulation, 6 months at 25 C then shaking up to 72 h
Description: as §1, §2

[3] = target: T2, recombinant cMet/HGFR with c-terminal His-tag, Cy5-labeled (UniProt P08581 25-932, limits assumed, Cy5 label (reacted with Cy5 Mono NHS Ester; sites not stated)); test: competitive TR-FRET (Eu-amivantamab/Cy5-c-MET), EC50 ratio vs Reference Material; Ex. 2 Formulation 3 (acetate), 3 months at 40 C
T2 construct: Commercial protein; also called Cy5-c-MET; Cy5-labeled c-MET antigen; not shown: C-terminal His-tag
Description: as §1, with “(Cy5)-labeled c-MET” for “(Cy5)-labeled EGFR”, “the Reference Material (RM).” for “the RM.”
as §2, with “c-MET Binding” for “EGFR Binding”, “commercial cMet,” for “commercial EGFR,”, “recombinant cMet/HGFR” for “recombinant human EGFR/ErbB1/HER1”, “with c-terminal His-tag” for “with C-terminal His tag”, “Cy5-labeled c-MET.” for “Cy5-labeled EGFR.”, “produce Eu labeled” for “produce Eu-labeled”

[4] = target: T2, recombinant cMet/HGFR with c-terminal …; test: competitive TR-FRET (Eu-amivantamab/Cy5-c-MET), EC50 ratio vs Reference Material; Ex. 11 drug product, 0 months, 5 C table
Description: as §1, with “(Cy5)-labeled c-MET” for “(Cy5)-labeled EGFR”, “the Reference Material (RM).” for “the RM.”
as §2, with “c-MET Binding” for “EGFR Binding”, “commercial cMet,” for “commercial EGFR,”, “recombinant cMet/HGFR” for “recombinant human EGFR/ErbB1/HER1”, “with c-terminal His-tag” for “with C-terminal His tag”, “Cy5-labeled c-MET.” for “Cy5-labeled EGFR.”, “produce Eu labeled” for “produce Eu-labeled”

[5] = target: T2, recombinant cMet/HGFR with c-terminal …; test: competitive TR-FRET (Eu-amivantamab/Cy5-c-MET), EC50 ratio vs Reference Material; Ex. 2 Formulation 1 (10 mM histidine), 3 months at 5 C
Description: as §1, with “(Cy5)-labeled c-MET” for “(Cy5)-labeled EGFR”, “the Reference Material (RM).” for “the RM.”
as §2, with “c-MET Binding” for “EGFR Binding”, “commercial cMet,” for “commercial EGFR,”, “recombinant cMet/HGFR” for “recombinant human EGFR/ErbB1/HER1”, “with c-terminal His-tag” for “with C-terminal His tag”, “Cy5-labeled c-MET.” for “Cy5-labeled EGFR.”, “produce Eu labeled” for “produce Eu-labeled”

[6] = target: T1, recombinant human EGFR/ErbB1/HER1 with …; test: competitive TR-FRET (Eu-amivantamab/Cy5-EGFR), EC50 ratio vs Reference Material; Ex. 2 Formulation 1 (10 mM histidine), T0, 40 C table
Description: as §1, §2

[7] = target: T2, recombinant cMet/HGFR with c-terminal …; test: competitive TR-FRET (Eu-amivantamab/Cy5-c-MET), EC50 ratio vs Reference Material; Ex. 2 Formulation 1 (10 mM histidine), 3 months at 40 C
Description: as §1, with “(Cy5)-labeled c-MET” for “(Cy5)-labeled EGFR”, “the Reference Material (RM).” for “the RM.”
as §2, with “c-MET Binding” for “EGFR Binding”, “commercial cMet,” for “commercial EGFR,”, “recombinant cMet/HGFR” for “recombinant human EGFR/ErbB1/HER1”, “with c-terminal His-tag” for “with C-terminal His tag”, “Cy5-labeled c-MET.” for “Cy5-labeled EGFR.”, “produce Eu labeled” for “produce Eu-labeled”

[8] = target: T2, recombinant cMet/HGFR with c-terminal …; test: competitive TR-FRET (Eu-amivantamab/Cy5-c-MET), EC50 ratio vs Reference Material; Ex. 2 Formulation 3 (acetate), T0, 40 C table
Description: as §1, with “(Cy5)-labeled c-MET” for “(Cy5)-labeled EGFR”, “the Reference Material (RM).” for “the RM.”
as §2, with “c-MET Binding” for “EGFR Binding”, “commercial cMet,” for “commercial EGFR,”, “recombinant cMet/HGFR” for “recombinant human EGFR/ErbB1/HER1”, “with c-terminal His-tag” for “with C-terminal His tag”, “Cy5-labeled c-MET.” for “Cy5-labeled EGFR.”, “produce Eu labeled” for “produce Eu-labeled”

B1: amivantamab (bispecific antibody, human IgG1, kappa)
heavy 1: not shown
light 1: not shown
heavy 2: not shown
light 2: DIQMTQSPSSVSASVGDRVTITCRASQGISNWLAWFQHKPGKAPKLLIYAASSLLSGVPSRFSGSGSGTDFTLTISSLQPEDFATYYCQQANSFPITFGQGTRLEIKRTVAAPSVFIFPPSDEQLKSGTASVVCLLNNFYPREAKVQWKVDNALQSGNSQESVTEQDSKDSTYSLSSTLTLSKADYEKHKVYACEVTHQGLSSPVTKSFNRGEC
notes: The samples tested were high concentration (160 mg/mL) formulations, fresh or stored or stressed; also called JNJ-61186372; bispecific EGFR-cMet antibody
With B1 the “EGFR Binding % activity relative to RM” value [1] was 68%, the “EGFR Binding % activity relative to RM” value [2] was 86% and the “cMET Binding % activity relative to RM” value [3] was 85%. For the same binder, the “cMET Binding activity relative to Reference Material (%)” value [4] was 85%, the “cMET Binding % activity relative to RM” value [5] was 100% and the “EGFR Binding % activity relative to RM” value [6] was 103%. For the same binder, the “cMET Binding % activity relative to RM” value [7] was 67% and the “cMET Binding % activity relative to RM” value [8] was 94%.
